This note sets out measurements from US20200181617, “CHEMICALLY MODIFIED RNA APTAMERS AND USES THEREOF” (ALBERT EINSTEIN COLLEGE OF MEDICINE, published 2020).

For the data set, the target named is T1, LRIG1 (UniProt Q96JA1 Q96JA1:35-794).
T1 sequence: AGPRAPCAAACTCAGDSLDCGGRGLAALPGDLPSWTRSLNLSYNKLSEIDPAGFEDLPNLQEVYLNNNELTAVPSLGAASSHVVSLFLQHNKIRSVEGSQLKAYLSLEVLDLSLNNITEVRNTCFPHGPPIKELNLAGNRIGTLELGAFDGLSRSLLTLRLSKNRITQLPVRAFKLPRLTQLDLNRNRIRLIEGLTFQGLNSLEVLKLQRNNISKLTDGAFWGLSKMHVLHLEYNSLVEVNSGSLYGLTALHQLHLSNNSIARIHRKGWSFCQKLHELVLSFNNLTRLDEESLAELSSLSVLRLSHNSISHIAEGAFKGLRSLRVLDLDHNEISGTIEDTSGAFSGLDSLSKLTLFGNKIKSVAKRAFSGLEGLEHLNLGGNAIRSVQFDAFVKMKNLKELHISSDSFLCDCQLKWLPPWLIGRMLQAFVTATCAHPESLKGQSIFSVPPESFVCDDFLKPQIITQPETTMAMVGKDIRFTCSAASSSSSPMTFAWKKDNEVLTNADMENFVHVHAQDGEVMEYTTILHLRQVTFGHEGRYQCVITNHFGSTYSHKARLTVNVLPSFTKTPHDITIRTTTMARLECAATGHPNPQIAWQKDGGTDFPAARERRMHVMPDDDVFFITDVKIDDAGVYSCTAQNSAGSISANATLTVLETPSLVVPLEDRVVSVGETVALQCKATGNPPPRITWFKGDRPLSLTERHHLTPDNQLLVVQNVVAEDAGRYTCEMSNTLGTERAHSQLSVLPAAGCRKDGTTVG
Briefly: flow; apparent; protein on Dynal His beads; no signal on non-protein beads. As to conditions: tags: His-tagged, immobilized on magnetic His-capture beads (Dynal His beads). The method, then:
Using a N40 library containing ˜10″ unique sequences, transcribed using a mixture of Phe-dUTP, 2′OMe ATP, 2′OMe CTP and 2′F GTP, SELEX was initiated against the protein LRIG1. In short, the His-tagged protein was immobilized on 1 μm, magnetic His-capture beads and incubated with the library for 30 minutes at 37° C. after which the beads were washed 3 times with buffer, and then any bound library molecules eluted by the addition of wash buffer containing the denaturant guanidine hydrochloride (4M). Following elution the library molecules were recovered by ethanol precipitation and reverse transcribed into DNA using SSIV under optimized conditions (2M betaine). The resulting ssDNA was then amplified by PCR and the resulting dsDNA then transcribed back in to modified RNA by transcription using the LAL-polymerase and a mixture of Phe-dUTP, 2′OMe ATP, 2′OMe CTP and 2′F GTP under the present optimized conditions. The process was repeated for 8 rounds of selection. A fluorescently labeled library was used to monitor the selection by flow cytometry. […] Importantly, when similar experiments were performed using non-protein target loaded beads, no signal over background was observed. […] Subsequent experiments were carried out to clone and sequence the round 6, 7 and 8 population and test individual molecules identified from the screen. […]

B1: Lrig1-Rd8-08 (clone 8) (XNA)
DNA: GGGAAGGAGAGACGACGCGACACCCCCTTGAGTCACAGGTGTGTGAGCGCCGACGGCTTGGTACAGCAGACAAGACCGGACAAGAAGC
modifications: 2'-F G; 2'-OMe A; 2'-OMe C; all T positions are 5-modified dU (Phe-dU)
For B1, the Kd was approximately 25 nM.

B2: Lrig1-Rd8-11 (clone 11) (XNA)
DNA: GGGAAGGAGAGACGACGCGACACCCGCTTCACCGCTGTGTAACTGCGACGACGGACGTCAGATCAGCAGACAAGACCGGACAAGAAGC
modifications: 2'-F G; 2'-OMe A; 2'-OMe C; all T positions are 5-modified dU (Phe-dU)
B2: the Kd was approximately 35 nM.
